For one series, the system named is JIMT-1 cell line. Put plainly: Tumor cell killing in culture, pre-existing resistance. It is filed as cell-based, human. To be noted: JIMT-1, dose-dependent, maximum. The protocol:
N=3. *, p<0.05 compared to parental. […] N=3. […] Treatments were compared to mock (saline)-treatment. […] N=3. *, p<0.05 compared to parental. […] N=3.
(§1) The efficacy of HerDox was also examined on a cell line with pre-existing resistance.
(§2) The contribution of HER3 to targeted toxicity was evaluated by assessing whether pre-adsorbing HerDox with a peptide comprising the ligand-binding domain of HER3 blocked cytotoxicity.

Another series concerns MDA-MB-435. In words: Cytotoxicity on cell lines (HerDox dose curves). In kind it is cell-based, human. To be noted: concentration yielding 50% reduction in cell survival, mean ± SD. The protocol:
FIG. 17 (B) depicts toxicity to cells displaying differential HER2. Cytotoxicities from a range of HerDox doses were assessed on each cell line by metabolic assay and confirmed by crystal violet stain. LD50 values shown in log scale were determined by non-linear regression analyses of HerDox dose curves using a scientific graphing program and confirmed using a calculator. The relative HER2 level of each cell line is shown next to each LD50 value.
The inventors measured cell surface levels of HER subunits on various cell lines and types described herein, as previously described levels may not reflect the actual levels in the available cells used. The inventors acquired the indicated cell lines from ATCC and the NIH/NCI and profiled these with respect to HER subunit levels (FIG. 17 (A)). To assess whether HerDox induces toxicity in accordance to HER2 levels, the inventors selected lines displaying HER2 at relatively high (SKBR3), moderate (MDA-MB-435, MDA-MB-453, HeLa), and low to undetectable (MDA-MB-231) levels, and performed cytotoxicity dose curves.

Another series relates to MDA-MB-231 (HER2−). Put plainly: Targeted toxicity, cell survival by MTT assay. It is filed as cell-based, human. Particulars: 0.5 μM with respect to Dox; HerPBK10 0.1 μM; day 3. On the procedure: (§3) FIG. 7 illustrates targeted toxicity. […] Cell titer was determined by metabolic (i.e. MTT) assay. FIG. 7 upper panel illustrates the effect of HerDox on MDA-MB-231 (HER2−) and MDA-MB-435 (HER2+) cell survival. Relative surviving cell numbers are represented as a % of corresponding untreated cells. […] Relative survival (as % of untreated cells) is shown for Day 3 of treatment.
(§4) N=3. […] Bar, about 4 μm. […] (E) compares HerDox and Dox on off-target tissue. […] Green fluorescence in nuclei indicates apoptosis (positive TUNEL stain).
(§5) By three days, HerDox reduced HER2+ cell numbers by over 75% whereas HER2− cell survival was unaffected (FIG. 7). […] These findings emphasize the importance of targeting by showing that the untargeted drug affects nontarget (i.e. HER2−) cells. […] To test receptor targeting, the inventors used free heregulin ligand (Her or eHRG) as a competitive inhibitor. […] As a final in vitro challenge, the inventors tested whether HerDox induces toxicity specifically to HER2+ cells in a mixed culture of HER2+ and HER2− breast cancer cells. To do this, the inventors produced a HER2− cell line tagged with green fluorescent protein (GFP) for cell identification in the mixed culture (FIG. 9-A). […] Altogether, these findings indicate that HerDox has the capacity to preferentially target toxicity to HER2+ cells. […] In serum-containing media, no such loss from HerDox is detectable. […] Co-migration of HerPBK10 bands further verified that the conjugates remained intact in the cell media.
For orientation: Tetrazolium assays rely on reduction of a dye to a coloured formazan, in cell work by metabolically active cells.

For another series, the system named is JIMT-1 tumors. Put plainly: Trastuzumab-resistant tumor growth in vivo. Details: species or system mouse. To be noted: 0.004 mg Dox/kg/injection, twice-weekly IV. The protocol: (§6) Tumor volumes were measured by calipers. Day 0 corresponds to first day of treatment. N=10 tumors per treatment.
as §6, §1, §2

A short description of series [1]: HerDox stability in cell culture media (agarose gel). In kind it is in vitro ADME. To be noted: serum-containing media, 37° C. On the procedure:
FIG. 9 (C) illustrates that there is stability in cell culture. Aliquots of culture media containing HerDox (after incubation for the indicated times at 37° C.) were electrophoresed on a 2% agarose gel. HerDox incubated at 37° C. in HEPES-buffered saline, lacking serum, was processed in parallel. Dox fluorescence was visualized by UV excitation. Free Dox (Dox alone) is not retained in the gel whereas Dox incorporated in HerDox is. To align fluorescent bands with HerPBK10 and assess loading per lane, the gel was stained with Coomassie blue, which also identified serum protein from culture media samples.
By three days, HerDox reduced HER2+ cell numbers by over 75% whereas HER2− cell survival was unaffected (FIG. 7). […] These findings emphasize the importance of targeting by showing that the untargeted drug affects nontarget (i.e. HER2−) cells. […] To test receptor targeting, the inventors used free heregulin ligand (Her or eHRG) as a competitive inhibitor. […] As a final in vitro challenge, the inventors tested whether HerDox induces toxicity specifically to HER2+ cells in a mixed culture of HER2+ and HER2− breast cancer cells. To do this, the inventors produced a HER2− cell line tagged with green fluorescent protein (GFP) for cell identification in the mixed culture (FIG. 9-A). […]

The test system of series [2] is GFP(+) MDA-MB-231 (HER2−). In words: Targeting in a mixed cell culture. In kind it is cell-based, human. To be noted: 0.5 μM Dox, day 2. The protocol: (§7) FIG. 9 (A) illustrates targeting in a mixed cell culture.
(§8) FIG. 9 (B) further illustrates targeting in a mixed cell culture. Cell survival was determined by calculating the relative doubling time (DT) of experimental (exp) cells normalized by control (con) cells based on the crystal violet stains (total cells) and GFP fluorescence (MDA-MB-231 cells). The DT of MDA-MB-435 was determined by subtracting the DT of MDA-MB-231 from the total cell DT. Relative survival is shown for Day 2 of treatment.
(§9) By three days, HerDox reduced HER2+ cell numbers by over 75% whereas HER2− cell survival was unaffected (FIG. 7). […] These findings emphasize the importance of targeting by showing that the untargeted drug affects nontarget (i.e. HER2−) cells. […] To test receptor targeting, the inventors used free heregulin ligand (Her or eHRG) as a competitive inhibitor. […] As a final in vitro challenge, the inventors tested whether HerDox induces toxicity specifically to HER2+ cells in a mixed culture of HER2+ and HER2− breast cancer cells. To do this, the inventors produced a HER2− cell line tagged with green fluorescent protein (GFP) for cell identification in the mixed culture (FIG. 9-A). […] Altogether, these findings indicate that HerDox has the capacity to preferentially target toxicity to HER2+ cells. […] In serum-containing media, no such loss from HerDox is detectable. […]

Series [3] concerns MDA-MB-435 (non-GFP, HER2+). Put plainly: Targeting in a mixed cell culture. It is filed as cell-based, human. Particulars: 0.5 μM Dox, day 2. The protocol: as §7, §8, §9
The subject of another series is MDA-MB-435 (HER2+). In words: Targeted toxicity, cell survival by MTT assay. In kind it is cell-based, human. The protocol: as §3
FIG. 8 illustrates receptor specificity. MDA-MB-435 (HER2+) cells were incubated with free ligand (eHRG) at 10× molar excess of HerDox for one hour at 4° C. Media was aspirated to remove free eHRG and fresh media containing HerDox (0.5 μM) was added to cells. Cell survival was measured by MTT assay and represented as a % of relative untreated cell numbers.
as §4, §5

We go through one molecule from US9850293B2, “Targeting trastuzumab-resistant HER2+ breast cancer with a HER3-targeting nanoparticle” (priority 2014, dated 2017).

B1: HerDox: non-covalent complex of HerPBK10, double-stranded oligonucleotide and intercalated Dox (Unit A+Unit B+Unit C) (conjugate)
chain: SHLVKCAEKEKTFCVNGGECFMVKDLSNPSRYLCKCQPGFTGARCTENVPMKVQNQEKAEELYQKMRRAAMYEEGPPPSYESVVSAAPVAAALGSPFDAPLDPPFVPPRYLRPTGGRNSIRYSELAPLFDTTRVYLVDNKSTDVASLNYQNDHSNFLTTVIQNNDYSPGEASTQTINLDDRSHWGGDLKTILHTNMPNVNEFMFTNKFKARVMVSRLPTKDNQVELKYEWVEFTLPEGNYSETMTIDLMNNAIVEHYLKVGRQNGVLESDIGVKFDTRNFRLGFDPVTGLVMPGVYTNEAFHPDIILLPGCGVDFTHSRLSNLLGIRKRQPFQEGFRITYDDLEGGNIPALLDVDAYQASLKDDTEQGGGGAGGSNSSGSGAEENSNAAAAAMQPVEDMNDHAIRGDTFATRAEEKRAEAEAAAEAAAPAAQPEVEKPQKKPVIKPLTEDSKKRSYNLISNDSTFTQYRSWYLAYNYGDPQTGIRSWTLLCTPDVTCGSEQVYWSLPDMMQDPVTFRSTRQISNFPVVGAELLPVHSKSFYNDQAVYSQLIRQFTSLTHVFNRFPENQILARPPAPTITTVSENVPALTDHGTLPLRNSIGGVQRVTITDARRRTCPYVYKALGIVSPRVLSSRTFKKKKKKKKKK
modifications: left off: small tags and cut ends
What is called EC50 is the concentration needed to bring the measured effect to its halfway point. B1: the cells killed entry in the series on JIMT-1 cell line is given as “up to 90%”. In the series with MDA-MB-435, this molecule returned a 50% effective concentration (EC50) of 0.74 ± 0.07 µM. Moreover, the “effect on HER2− cell survival” value in the series on MDA-MB-231 (HER2−) was “unaffected”. In addition, in the series with JIMT-1 tumors, the “effect on JIMT-1 tumor growth” value is recorded as “ablated tumor growth”. Besides, the “loss of Dox fluorescence from conjugate in culture media” value in series [1] was “no such loss”. Moreover, the “GFP (HER2−) cell growth in mixed culture” value in series [2] was “not altered”. Besides, the “non-GFP (HER2+) cell proliferation in mixed culture” value in series [3] is “nearly completely reduced”. Further, in the series with MDA-MB-435 (HER2+) (0.5 μM with respect to Dox, by three days), the “reduction of HER2+ cell numbers” value was “over 75%”. For the same molecule, in the series with MDA-MB-435 (HER2+) (eHRG at 10× molar excess, HerDox 0.5 μM), the “cell killing with free heregulin ligand as competitive inhibitor” value was “completely inhibited cell killing”.
